{"source": "paper PMC8009421", "about": "“Characterization of a broadly specific cadaverine N-hydroxylase involved in desferrioxamine B biosynthesis in Streptomyces sviceus” (PLoS ONE, 2021)", "key": {"[1]": {"test_system": "NC(=O)C1=CN([C@@H]2O[C@H](COP(=O)(O)OP(=O)(O)OC[C@H]3O[C@@H](n4cnc5c(N)ncnc54)[C@H](O)[C@@H]3O)[C@@H](O)[C@H]2O)C=CC1", "test": "Csaky iodine oxidation product formation assay", "assay_type": "biochemical, Streptomyces sviceus", "details": "10 mM cadaverine, 50 μM FAD, pH 8.0, 25°C, Haldane fit", "source_text": "(§1) Csaky iodine oxidation product formation assay on SsDesB (without N-terminal hexahistidine tag)"}, "[2]": {"molecular_target": "T1, SsDesB (without N-terminal hexahistidine tag) (Streptomyces sviceus, UniProt B5HNG5)", "T1 construct": "gene SSEG_08523; T2-V425, N-terminal His6 cut off with TEV protease (ENLYFQ/T); codon-optimized gene, E. coli Rosetta2(DE3); homotetramer", "test": "X-ray crystal structure, […] Å", "details": "holoenzyme; FAD-binding site; also in 6XBB"}, "[3]": {"molecular_target": "T1, SsDesB (without N-terminal hexahistidine tag)", "test": "Csaky iodine oxidation product formation assay", "assay_type": "biochemical", "details": "substrate inhibition constant (Haldane), 50 μM FAD, pH 8.0, 25°C", "source_text": "as §1"}, "[4]": {"molecular_target": "T2, SsDesB with N-terminal hexahistidine tag (Streptomyces sviceus, UniProt B5HNG5)", "T2 construct": "gene SSEG_08523", "test": "NADH oxidation at […] nm", "assay_type": "biochemical", "details": "substrate inhibition constant (Haldane); 0.7 mM NADH, 50 μM FAD, 25°C"}, "[5]": {"molecular_target": "T1, SsDesB (without N-terminal hexahistidine tag)", "test": "X-ray crystal structure, […] Å", "details": "ternary complex with FAD; NADPH-binding site"}, "[6]": {"test_system": "NC(=O)C1=CN([C@@H]2O[C@H](COP(=O)(O)OP(=O)(O)OC[C@H]3O[C@@H](n4cnc5c(N)ncnc54)[C@H](O)[C@@H]3O)[C@@H](O)[C@H]2O)C=CC1", "test": "purified protein", "assay_type": "biochemical, Streptomyces sviceus", "details": "10 mM cadaverine, 50 μM FAD, 25°C, Haldane fit"}}, "data": [{"compound": "SsDesB (without N-terminal hexahistidine tag) (Streptomyces sviceus ATCC 29083)", "values": [{"measurement": "Km", "setting": "[1]", "result": "130 ± 49", "unit": "µM"}, {"measurement": "kcat", "setting": "[1]", "result": "0.094 ± 0.018", "unit": "s⁻¹"}, {"measurement": "kcat/Km", "setting": "[1]", "result": "710 ± 260", "unit": "M⁻¹ s⁻¹"}]}, {"compound": "Cc1cc2nc3c(=O)[nH]c(=O)nc-3n(C[C@H](O)[C@H](O)[C@H](O)COP(=O)(O)OP(=O)(O)OC[C@H]3O[C@@H](n4cnc5c(N)ncnc54)[C@H](O)[C@@H]3O)c2cc1C", "note": "[FAD]", "values": [{"measurement": "X-ray crystal structure, 2.86 Å", "setting": "[2]", "result": "FAD molecule is bound in an elongated conformation with the fully planar isoalloxazine ring"}]}, {"compound": "NCCCCCN", "note": "[cadaverine]", "values": [{"measurement": "KI", "setting": "[3]; 0.7 mM NADPH (Fig 3 legend says NADH)", "result": "27 ± 22", "unit": "mM"}, {"measurement": "KI", "setting": "[4]", "result": "2.2 ± 1.8", "unit": "mM"}]}, {"compound": "NC(=O)C1=CN([C@@H]2O[C@H](COP(=O)(O)OP(=O)(O)OC[C@H]3O[C@@H](n4cnc5c(N)ncnc54)[C@H](OP(=O)(O)O)[C@@H]3O)[C@@H](O)[C@H]2O)C=CC1", "note": "[NADPH]", "values": [{"measurement": "KI", "setting": "[3]; 10 mM cadaverine", "result": "1.1 ± 0.6", "unit": "mM"}]}, {"compound": "NC(=O)c1ccc[n+]([C@@H]2O[C@H](COP(=O)(O)OP(=O)(O)OC[C@H]3O[C@@H](n4cnc5c(N)ncnc54)[C@H](OP(=O)(O)O)[C@@H]3O)[C@@H](O)[C@H]2O)c1", "note": "[NADP^+]", "values": [{"measurement": "X-ray crystal structure, 2.37 Å", "setting": "[5]", "result": "the NADP^+ cofactor is held in the active site pocket in an elongated manner"}]}, {"compound": "NC(=O)C1=CN([C@@H]2O[C@H](COP(=O)(O)OP(=O)(O)OC[C@H]3O[C@@H](n4cnc5c(N)ncnc54)[C@H](O)[C@@H]3O)[C@@H](O)[C@H]2O)C=CC1", "note": "[NADH]", "values": [{"measurement": "KI", "setting": "[3]; 10 mM cadaverine", "result": "1.0 ± 0.4", "unit": "mM"}]}, {"compound": "SsDesB with N-terminal hexahistidine tag (Streptomyces sviceus ATCC 29083)", "values": [{"measurement": "Km", "setting": "[6]", "result": "120 ± 36", "unit": "µM"}, {"measurement": "kcat", "setting": "[6]", "result": "0.38 ± 0.09", "unit": "s⁻¹"}, {"measurement": "kcat/Km", "setting": "[6]", "result": "3300 ± 1300", "unit": "M⁻¹ s⁻¹"}]}]}
